Measurements: patent US20230220104A1 (BRIGHTPATH BIOTHERAPEUTICS, published 2023)
Numbering of substitutions follows the chain as printed. Like-named read-outs stand apart in the source and are kept apart here. One block for each binder: values may come before it.

Tests used:
[1] = target: T1, human CD73 on cells (H322, MDA-MB-231, HT-144, T cells, CD73-transfected HEK293T) (human, UniProt P21589 27-549); experiment: flow cytometry on MDA-MB-231 cells (endogenous CD73), fluorescently labeled secondary antibody, PE channel
T1 construct: whole, on cells; One molecule for endogenous and transfected cell-surface human CD73; the cell line is named under assay or readout; also called CD73 antigen; human CD73 antigen
T1 sequence (looked up): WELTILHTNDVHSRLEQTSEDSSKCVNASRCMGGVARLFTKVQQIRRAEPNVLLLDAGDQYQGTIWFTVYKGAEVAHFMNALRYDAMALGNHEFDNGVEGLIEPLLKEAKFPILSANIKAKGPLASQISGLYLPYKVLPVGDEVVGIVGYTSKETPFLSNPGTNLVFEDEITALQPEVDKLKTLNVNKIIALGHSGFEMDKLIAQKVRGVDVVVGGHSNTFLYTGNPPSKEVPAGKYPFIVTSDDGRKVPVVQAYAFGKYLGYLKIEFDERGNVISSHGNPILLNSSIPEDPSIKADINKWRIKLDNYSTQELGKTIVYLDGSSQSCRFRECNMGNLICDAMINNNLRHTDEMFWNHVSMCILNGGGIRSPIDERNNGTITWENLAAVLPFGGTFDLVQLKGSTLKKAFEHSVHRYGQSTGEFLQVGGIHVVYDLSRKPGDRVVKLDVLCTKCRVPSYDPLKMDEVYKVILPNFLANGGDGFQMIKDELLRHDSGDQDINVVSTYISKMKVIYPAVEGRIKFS

[2] = target: T1, human CD73 on cells (H322, MDA-MB-231, …); experiment: flow cytometry, HEK293T cells forcibly expressing human CD73 (293T_hCD73) against untransfected 293T cells, APC channel
[3] = target: T1, human CD73 on cells (H322, MDA-MB-231, …); experiment: cell-based or functional assay
[4] = target: T1, human CD73 on cells (H322, MDA-MB-231, …); experiment: cell-based or functional assay; remark: listed apart in the source
[5] = target: T1, human CD73 on cells (H322, MDA-MB-231, …); experiment: cell-based or functional assay; remark: listed apart in the source
[6] = target: T2, human CD73 antigen (Biacore analyte) (human, UniProt P21589 27-547, limits assumed); experiment: SPR, Biacore 8K, antibody captured on CM5 chip, CD73 as analyte, multicycle kinetics, 1:1 model
T2 sequence (looked up): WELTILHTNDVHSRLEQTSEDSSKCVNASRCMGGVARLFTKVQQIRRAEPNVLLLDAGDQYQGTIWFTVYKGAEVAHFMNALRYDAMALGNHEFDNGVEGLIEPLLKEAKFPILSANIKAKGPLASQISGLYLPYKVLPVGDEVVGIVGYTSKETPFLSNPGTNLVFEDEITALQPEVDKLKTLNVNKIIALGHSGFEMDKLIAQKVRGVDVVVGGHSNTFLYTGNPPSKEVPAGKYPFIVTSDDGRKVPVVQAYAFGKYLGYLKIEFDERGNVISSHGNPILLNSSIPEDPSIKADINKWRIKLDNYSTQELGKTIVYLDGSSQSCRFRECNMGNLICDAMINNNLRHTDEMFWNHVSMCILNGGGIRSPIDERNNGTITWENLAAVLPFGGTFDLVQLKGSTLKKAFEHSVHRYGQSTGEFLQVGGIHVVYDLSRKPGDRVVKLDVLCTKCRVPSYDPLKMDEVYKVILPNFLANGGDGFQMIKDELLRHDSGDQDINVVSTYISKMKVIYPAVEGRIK

[7] = target: T3, cynomolgus CD73 (Biacore analyte) (cynomolgus, UniProt A0A2K5V5U7 27-547); experiment: as above
T3 sequence: T2 sequence (looked up) with M199T, T350A, V466I

[8] = target: T1, human CD73 on cells (H322, MDA-MB-231, …); experiment: flow cytometry on H322 cells (endogenous CD73), fluorescently labeled secondary antibody, PE channel

binding result [1]: binds
B1: 009_m antibody (antibody, V domains shown)
VH: QVQLQQSGAELVRPGASVKLSCKASGYTFTSYWMNWVKQRPEPGLEWIGRIDPYDSEAHYNQKFKDKAILTVDKSSSTAYMQLSSLTSEDSAVYYCTRIRYGTFDYWGQGTTLTVSS
VL: DIVLTQSPSSMYASLGERVTITCKASQDINSYLSWFQQKPGKSPKTLIYRSNSLVDGVPSRFSGSGSGQDYSLTISSLEYEDMGSYYCLQYDEFPYTFGGGTRLEIKR
notes: Mouse antibody expressed recombinantly in CHO cells

binding result [2]: binds
B2: 004_h3 antibody (antibody, V domains shown)
VH: EVQLVQSGAEVKKPGESLKISCKASGYTFTGYWMNWLRQMPDKGLEWMGRIDPYDSETHYSQKFKDKVTITAHKSSSTAYLQWSSLKASDSAIYYCARSSPITTAPFDYWGQGTTVTVSS
VL: DIVMTQSPASLAVSLGERATISCRASESVDYYGFSFMNWYQQKPGQPPKLLIYAASTQGSGVPDRFSGSGSGTDFTLTISSLQAEDVAVYYCQQSKEVPYTFGGGTKVEIK
notes: Humanized antibody based on 004_m

IC50 of AMP degradation suppressive function, H322 cells [3]: 0.089 µg/mL
B3: 002_m antibody (antibody, V domains shown)
VH: QVQMKQSGPELVKPGASVKIPCKASGYTFTDCNMDWVKQSHGESLEWIGDINPNNGGTIYNQKFKGKVTLTIDKSSSTAYMELRSLTSEDTAVYYCARTNWDYAMDYWGQGTSVTVSS
VL: DIQMTQSPSSMYASLGERVTITCKASQDINSNLSWFQQKPGKSPKTLIYRANRLIDGVPSRFSGSGSGQDYSLTISSLEYEDMGIYYCLQYDVFPRTFGGGTKLELK

IC50 of AMP degradation suppressive function, H322 cells [4]: 0.069 µg/mL | IC50 of AMP degradation suppressive function, MDA-MB-231 cells [5]: 0.032 µg/mL | Kd [6]: 0.204 nM | Kd [7]: 0.273 nM
B4: 002_6_h4 antibody (antibody, V domains shown)
VH: QVQMKQSAAEVRKPGASVKVSCKASGYTFTDSNMDWVRQAPGQGLEWMGDINPNNGGTIYNQKFKGRVTMTIDTSRSTAYMELRSLRSDDTAVYYCARTNWDYAMDYWGQGTTVTVSS
VL: DIQMTQSPSFLSASVGDRVTITCKASQDINSQLSWYQQKPGKAPKTLIYRANRLIDGVPSRFSGSGSGTDFTLTISSLQYEDMATYYCLQYDVFPRTFGGGTKLEIK
notes: Humanized antibody of 002_6_c; also called humanized anti-CD73 antibody 002_6_h4; lead antibody

binding result [2]: binds
B5: 008_h4 antibody (antibody, V domains shown)
VH: QVQLVQSGAEVKKPGASVKVSCKASGYTFTSYWMHWVRQRPGQGLEWMGEINPSNGRTNYNEKFKNRATITADKSSSTAYMELSSLRSEDTAVYYCARRGTSGNYFDYWGQGTLVTVSS
VL: B4 VL with F10S, S31T, Q32Y, Y36F, I55V, S67Y, V93E, R96Y, L104V
notes: Humanized antibody based on 008_m

binding result [8]: binds
B6: 005_m antibody (antibody, V domains shown)
VH: DVQLVESGPGLVAPSQSLSITCTVSGFSLTSYGVSWVRQPPGKGLEWLGVIWGDGSTNYHSALISRLSISKDNSKSQVFLKLNSLQTDDTATYYCAKTNIFYDYDWYLDVWGAGTTVTVSS
VL: DIVMTQAPLSLPVSLGDQASISCRSSQSLVHSNGNTYLHWYLQKPGQSPKLLIYKVSNRFSGVPDRFSGSGSGTDFTLKISRVEAEDLGVYFCSHSTHVPWTFGGGTKLELK
notes: as for B1

Kd [6]: 0.426 nM | Kd [7]: 0.457 nM
B7: 006_hKB antibody (antibody, V domains shown)
VH: QVQLLQSGAEVKKPGESVKISCKASGYTFTSYWMHWVKQRPGQGLEWIGEINPSNARTNYNENFKSRFTITVDKSTSTAYMQFSRLRSDDTAVYYCARRGTSGNYFDFWGQGTMLTVSS
VL: DIQMTQSPSSLSASLGQRVTITCKASQDINTYLSWFQQKPGKPPKTLIYRANRLVDGVPSRFSGSGSGEDYSLTISSLQSEDFGVYYCLQYDEFPYTFGPGTRLEIK
notes: Humanized antibody based on 006_m
